Assay [1] has as its target T1, E-selectin expressed on CHO cells (CHO:E-selectin) (UniProt P16581 22-610, limits assumed).
T1 construct: whole, on cells; also called E-selectin expressing CHO cells; CHO cells which express E-selectin
T1 sequence (looked up): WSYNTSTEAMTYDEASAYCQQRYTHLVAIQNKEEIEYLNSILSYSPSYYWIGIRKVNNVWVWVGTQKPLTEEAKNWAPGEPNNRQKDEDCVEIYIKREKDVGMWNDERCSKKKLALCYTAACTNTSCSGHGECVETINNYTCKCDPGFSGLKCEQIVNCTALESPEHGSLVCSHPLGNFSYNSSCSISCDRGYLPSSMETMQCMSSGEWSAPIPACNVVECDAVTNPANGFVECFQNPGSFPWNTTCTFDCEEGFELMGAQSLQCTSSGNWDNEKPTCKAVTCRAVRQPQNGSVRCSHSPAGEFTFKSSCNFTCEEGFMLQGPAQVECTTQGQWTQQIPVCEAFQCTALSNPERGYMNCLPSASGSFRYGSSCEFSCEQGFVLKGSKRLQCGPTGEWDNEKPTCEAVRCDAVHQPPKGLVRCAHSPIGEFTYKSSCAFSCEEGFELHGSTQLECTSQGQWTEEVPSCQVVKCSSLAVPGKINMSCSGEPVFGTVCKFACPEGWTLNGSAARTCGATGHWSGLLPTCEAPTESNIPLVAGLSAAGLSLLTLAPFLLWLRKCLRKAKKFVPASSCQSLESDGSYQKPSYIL
The assay can be described thus: plate coated with chimera; adhesion of CHO:E-selectin cells (FIG. 20). As for the experimental part:
(§1) Quantitative adhesion of CHO:P-selectin, CHO:E-selectin and CHO:L-selectin expressing cells was performed as described in Example 4(c), with the following modifications: COS cell and antibodies were omitted. Instead, 48-well microtiter plates (Costar) were coated for 16 hours at 4° C. with varying quantities of protein A-purified soluble PSGL-1/Fc chimeras. The unbound material was removed and the coated wells were treated with Hank's buffered saline (HBS) with 1 mg/ml BSA and 2 mM CaCl_2 for 1 hour at 4° C. Tritium labeled CHO selectin expressing cells were added and binding quantitated as described in Example 4(c).

The target of assay [2] is T2, P-selectin expressed on the surface of CHO cells (CHO:P-selectin cell line) (UniProt P16109 42-830, limits assumed).
T2 construct: whole, on cells; also called P-selectin expressing CHO cells
T2 sequence (looked up): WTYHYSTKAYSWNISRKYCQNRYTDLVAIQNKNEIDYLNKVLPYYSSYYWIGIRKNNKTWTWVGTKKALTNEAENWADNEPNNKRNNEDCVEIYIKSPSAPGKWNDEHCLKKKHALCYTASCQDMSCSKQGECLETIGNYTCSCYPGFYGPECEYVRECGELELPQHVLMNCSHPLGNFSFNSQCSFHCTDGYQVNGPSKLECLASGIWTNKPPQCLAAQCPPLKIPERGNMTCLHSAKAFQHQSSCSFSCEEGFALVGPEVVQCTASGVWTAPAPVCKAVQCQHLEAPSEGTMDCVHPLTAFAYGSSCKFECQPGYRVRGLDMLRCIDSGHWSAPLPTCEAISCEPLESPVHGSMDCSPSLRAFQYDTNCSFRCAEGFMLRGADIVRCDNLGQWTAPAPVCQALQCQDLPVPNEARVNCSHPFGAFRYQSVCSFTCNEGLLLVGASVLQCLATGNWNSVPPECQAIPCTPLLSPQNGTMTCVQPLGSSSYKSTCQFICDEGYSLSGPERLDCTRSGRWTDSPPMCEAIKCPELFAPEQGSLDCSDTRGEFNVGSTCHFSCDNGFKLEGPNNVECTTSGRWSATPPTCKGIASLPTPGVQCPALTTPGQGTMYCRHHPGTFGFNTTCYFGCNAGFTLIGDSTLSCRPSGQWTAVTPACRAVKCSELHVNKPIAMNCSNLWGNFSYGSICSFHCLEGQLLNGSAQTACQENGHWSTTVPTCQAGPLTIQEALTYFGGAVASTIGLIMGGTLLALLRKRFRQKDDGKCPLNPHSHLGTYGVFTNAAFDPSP
Kind of assay: plate coated with chimera; adhesion of CHO:P-selectin cells (FIG. 19). As for the experimental part:
as §1

In assay [3] the target is T2, P-selectin expressed on the surface of …. The assay can be described thus: plate coated with chimera; adhesion of 3H-labelled CHO:P-selectin cells (FIG. 14). As for the experimental part: as §1
Assay [4] deals with T1, E-selectin expressed on CHO cells …. The assay can be described thus: plate coated with chimera; adhesion of 3H-labelled CHO:E-selectin cells (FIG. 15). The procedure:
as §1

Assay [5] has as its target T3, chimeric protein comprising the extracellular domain of human E-selectin and the Fc portion of human IgG1 … (human, UniProt P16581 22-556).
T3 construct: extracellular domain; Built analogously to LEC-γ1; also called soluble E-selectin chimera; immobilized E-selectin; not shown: Fc portion of human IgG1
T3 sequence (looked up): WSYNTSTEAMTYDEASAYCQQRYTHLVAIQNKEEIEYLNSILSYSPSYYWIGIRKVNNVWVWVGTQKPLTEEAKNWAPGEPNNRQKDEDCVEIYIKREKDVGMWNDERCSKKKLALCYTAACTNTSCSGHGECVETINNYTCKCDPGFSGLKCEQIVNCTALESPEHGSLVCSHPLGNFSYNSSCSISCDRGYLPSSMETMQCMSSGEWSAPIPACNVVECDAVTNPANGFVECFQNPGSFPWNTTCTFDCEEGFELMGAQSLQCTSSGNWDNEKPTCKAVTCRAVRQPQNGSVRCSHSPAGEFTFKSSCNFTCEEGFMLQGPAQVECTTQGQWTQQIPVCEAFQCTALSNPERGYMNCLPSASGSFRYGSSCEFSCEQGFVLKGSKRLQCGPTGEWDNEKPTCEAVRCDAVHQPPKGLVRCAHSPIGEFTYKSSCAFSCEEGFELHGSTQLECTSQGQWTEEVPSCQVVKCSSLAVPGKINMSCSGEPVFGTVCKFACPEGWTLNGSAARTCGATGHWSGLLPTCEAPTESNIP
Kind of assay: affinity precipitation from U937 membrane extracts; trace capture not excluded by the filing.

B1: H24.Q70.148.Fc (Fc fusion)
chain: QATEYEYLDYDFLPETEPPEMLRHSTDTTPLTGPGTPESTTVEPAARRSTGLDAGGAVTELTTELANMGQLSTDSAAMEIQTTQPAATEAQTTPLAATEAQTTRLTATEAQTTPLAATEAQTTPPAATEAQTTQPTGLEAQTTAPAAM
modifications: glycosylated, co-expressed with 3/4FT
notes: also called pED.H24.Q70.148.Fc product; not shown: NotI junction/linker of pED.Fc; Fc region of a human IgG1
Regarding B1, the binding result in assay [1] and in assay [2] was “binds” throughout.

B2: ΔY148.Fc, amino acids 42-189 of SEQ ID NO:2 with amino acids 46-52 deleted (Fc fusion)
chain: QATEFLPETEPPEMLRNSTDTTPLTGPGTPESTTVEPAARRSTGLDAGGAVTELTTELANMGNLSTDSAAMEIQTTQPAATEAQTTPLAATEAQTTRLTATEAQTTPLAATEAQTTPPAATEAQTTQPTGLEAQTTAPAAM
modifications: glycosylated, co-expressed with 3/4FT
notes: also called pED.ΔY148.Fc product; not shown: NotI junction/linker of pED.Fc; Fc region of a human IgG1
B2: the values for the binding result in assay [3] and in assay [4] were “no binding” and “binds”, respectively.

B3: CD43 (leukosialin) of U937 cells (other, human, UniProt P16150 20-400, looked up)
chain: STTAVQTPTSGEPLVSTSEPLSSKMYTTSITSDPKADSTGDQTSALPPSTSINEGSPLWTSIGASTGSPLPEPTTYQEVSIKMSSVPQETPHATSHPAVPITANSLGSHTVTGGTITTNSPETSSRTSGAPVTTAASSLETSRGTSGPPLTMATVSLETSKGTSGPPVTMATDSLETSTGTTGPPVTMTTGSLEPSSGASGPQVSSVKLSTMMSPTTSTNASTVPFRNPDENSRGMLPVAVLVALLAVIVLVALLLLWRRRQKRRTGALVLSRGGKRNGVVDAWAGPAQVPEEGAVTVTVGGSGGDKGSGFPDGEGSSRRPTLTTFFGRRKSRQGSLAMEELKSGSGPSLKGEEEPLVASEDGAVDAPAPDEPEGGDGAAP
modifications: native myeloid glycosylation
B3: the binding result in assay [5] is “no binding”.
